Test results as given in patent US7294496B1, “Cloned human lysophospholipase” (The Regents of the University of California, priority 2000, dated 2007).

Experiments:
Type in all cases: biochemical
[1] = LysoPLA activity assay (release of fatty acid from 14C-LysoPC)
Protocol: (§1) The protein concentration was determined by the Bio-Rad protein assay, using bovine serum albumin (BSA) as standard. Protein purity was examined using 12% SDS-PAGE and Coomassie blue staining. LysoPLA activity was measured at 40° C. in the assay buier containing LysoPC, 100 mM Tris-HCl (pH 8.0) and 10 mM LMe. Cold 1-palmitoyl-sn-glycero-3-phosphorylcholine (125 μM, unless indicated otherwise) was mixed with 1-[14 C]palmitoyl-sn-glycero-3-phosphorylcholine (100,000 cpm) in a total volume of 0.5 ml. The assay was initiated by adding an aliquot of enzyme solution to the substrate mixture and incubating for the desired time. The released fatty acid was extracted by the modified Dole method and then quantified by scintillation counting. The PLA2 activity assay was carried out, using various ^14C-labeled phospholipid substrates under various conditions as given in the text. The rat brain iPLA2 was purified as described elsewhere (H. C. Yang et al., manuscript in preparation incorporated herein). Human recombinant cPLA2 was a gift from Drs. J. D. Sharp and R. M. Kramer at Lilly Laboratories. 1-[^14C]Palmitoyl-sn-glycero-3-phosphorylcholine and 1-palmitoyl-2-[1-^14C]palmitoyl-sn-glycerol-3-phosphorylcholine were purchased from Amersham. 1-Palmitoyl-2-[1-^14C]arachidonoyl-sn-glycerol-3-phosphorylcholine was purchased from DuPont-NEN. All unlabeled phospholipids were purchased from Avanti Polar Lipids. Triton X-100 (TX-100) and PIP2 were obtained from CalBiochem.
To investigate the catalytic properties of the hLy-soPLA, we first determined the specific activity of hLysoPLA as a function of substrate (1-palmitoyl LysoPC) concentration. […] There seems to be some cooperativity, since the data fit to the Hill equation (solid line in FIG. 3) with n=1.53 ? 0.08, kcat=1.34 ? 0.04 μmol/min/mg, and substrate at half-maximal saturation is 12.7±0.9 μM.
TX-100 is often used in the purification and stabilization of membrane-associated proteins. In addition, it is used to change the surface concentration of the substrate in the mixed-micelle assay for mechanistic studies. To determine the dependence of the enzyme activity on the substrate surface concentration, we measured the hLysoPLA activity under two conditions:
(1) the bulk LysoPC concentration (1.125 mM) was kept constant and the TX-100 concentration was varied (FIG. 4A);
(2) the bulk TX-100 concentration (1 mM) was kept constant and the LysoPC concentration was varied (FIG. 4B).
In addition, we have carried out detailed kinetic measurements and analysis to test the surface dilution kinetic model and results are shown in FIG. 4° C. The experimental data were fitted globally to Eq. 1 derived from the model in which hLysoPLA follows the two-step binding kinetics (Scheme 1). That is, hLysoPLA (E) binds first to the mixed-micellar surface (S) and then to the LysoPC substrate (A) presented on the surface.
[formula] [formula] Here, [LysoPC+TX-100] is the total molar concentration in the bulk solution, and {LysoPC®} is the molar fraction of the substrate on the mixed-micellar surface. Calculation of the amount of TX-100 in the micelle takes into account the amount of monomeric detergent in the solution, assuming the critical micelle concentration of TX-100 is 0.25 mM. The fitting parameter Ks represents the dissociation constant (k31/k1) for the mixed-micellar surface, Km represents the apparent Michaelis constant (=(k3+ k32)/k2) on the surface, and Vmax is the catalytic turnover rate.

[2] = PLA2 activity assay toward plasmenylcholine
Protocol: as §1
The sn-2 labeled PlsCho (plasmenylcholine or 1-O— (Z)-1P-alkenyl-2-arachidonoyl-sn-glycero-3-phosphocholine) was synthesized as follows. A total of 4 μmol [1-14C]arachidonic acid (from NEN, with specific activity […]) was diluted 10 times with cold arachidonic acid in 250 μl distilled methylene chloride (Fisher Scientific). To this 0.04 mmol p(N,N-dimethyl)amino pyridine (Aldrich) and 0.08 mmol 1,3-dicyclohexyl carbodiimide (Aldrich) were added to yield the arachidonoyl anhydride upon 1 h of stirring. Lysoplasmenylcholine (0.06 mmol, from Serdary) dissolved in 200 μl methylene chloride and 50 μl pyridine (Fisher Scienticc) was added to the arachidonoyl anhydride solution with 0.03 μmol dimethylaminopyridine and left stirring for 8 h. The reaction progress was monitored by thin layer chromatography (Merck) using a mobile phase of chloroform:methanol:triethyl amine:water (65:30:1.5:3.5), and retardation factors were 0.6 and 0.2 for PlsCho and LysoPlsCho, respectively. The separation of the product was carried out by preparative layer chromatography (Merck) in the above mobile system. The reaction yielded a total of 3.6 mg (7.7 μmol) of radiolabeled PlsCho (specific activity 0.18 μCi/μmol) by quantitative phosphate analysis.
(§2) When we first purified the mouse LysoPLA from P388D1 cells, no other enzymatic activities (PLA1, PLA2, acyltransferase, transacylase and esterase) were found. Therefore, it appears to be a LysoPL-specific LysoPLA. Similar results were obtained for the rat LysoPLA and the relative rates towards different LysoPL substrates were reported [Sugimoto et al., (1996) J. Biol. Chem. 271, 7705-11]. However, a recently sequenced rabbit enzyme that shares high sequence homology (approx. 97%) to the rat/mouse LysoPLA was reported to have both PLA2 and LysoPLA activities [Portilla, et al., […] J. Am. Soc.Nephrol. 9, 1178-86]. The specific activities, however, were only 10 nmol/min/mg for PLA2 activity and 20 nmol/min/mg for LysoPLA activity. The PLA2 activity was also reported to be selective for PlsCho substrate with arachidonic acid at the sn2 position. To determine whether hLysoPLA also expresses PLA2 activity, we have explored its ability to hydrolyze arachidonic acid labeled PlsCho as well as other phospholipid substrates under a variety of conditions.

[3] = PLA2 activity assay toward DPPC; details: for Activity: 100 mM Hepes
Protocol: as §1, §2

[4] = PLA2 activity assay toward PAPC; details: for Activity: 100 mM Hepes, pH 7.5, 80 μM Ca2+, 2 mM DTT, 0.1 mg/ml BSA
Protocol: as §1, §2

[5] = Hill equation fit, pure LysoPC (FIG. 3)
[6] = global fit to surface dilution model, LysoPC/TX-100 mixed micelles

B1: hLysoPLA: recombinant human brain lysophospholipase, single 25 kDa polypeptide of 230 amino acids (SEQ ID NO: 2), catalytic triad Ser-119, Asp-174, His-208 (protein, listed as Homo sapiens)
chain: MCGNNMSTPLPAIVPAARKATAAVIFLHGLGDTGHGWAEAFAGIRSSHIKYICPHAPVRPVTLNMNVAMPSWFDIIGLSPDSQEDESGIKQAAENIKALIDQEVKNGIPSNRIILGGFSQGGALSLYTALTTQQKLAGVTALSCWLPLRASLPQGPIGGANRDISILQCHGDCDPLVPLMFGSLTVEKLKTLVNPANVTFKTYEGMMHSSCQQEMMDVKQFIDKLLPPID
With B1 the Hill coefficient n ([1]; Hill equation fit, activity vs 1-palmitoyl LysoPC concentration, 40° C. (FIG. 3)) was 1.53, the kcat [1, 5] was 1.34 µmol/min/mg and the “substrate at half-maximal saturation” value [1, 5] was 12.7 ± 0.9 µM. The Activity ([1]; LysoPC micelles (125 μM), 100 mM Tris, pH 8.0, 10 mM βMe) was 1.13 ± 0.03 µmol/min/mg, the kcat ([1]; Michaelis-Menten fit, LysoPC 1.125 mM constant, TX-100 varied (FIG. 4A)) was 1.6 µmol/min/mg and the kcat ([1]; Michaelis-Menten fit, TX-100 1 mM constant, LysoPC varied (FIG. 4B)) was 1.7 µmol/min/mg. The “Km (apparent Michaelis constant on the surface)” value [1, 6] was 12.2±0.9 mol %, the “Ks (dissociation constant for the mixed-micellar surface)” value [1, 6] was 66 ± 7 µM and the Vmax ([1]; global fit to surface dilution model, LysoPC/TX-100 mixed micelles (FIG. 4C)) was 1.37 ± 0.05 µmol/min/mg. For the same molecule, the “specific activity toward palmitoyl LysoPC” value ([1]; purified recombinant enzyme, His-Tag removed) was “about 1.3 μmol/min/mg”, the Activity ([2]; PisCho sonicated vesicles (100 μM), 100 mM Tris, pH 8.0, 4 mM EGTA, 10 mM βMe) was 0.0009 ± 0.0003 µmol/min/mg and the Activity ([2]; PisCho sonicated vesicles (100 μM), 100 mM Tris, pH 8.0, 150 mM NaCl, 3 mM MgCl2, 10 mM βMe) was 0.0006 ± 0.0002 µmol/min/mg. The Activity ([2]; PisCho/TX-100 mixed micelles (100 μM:600 μM), 100 mM Hepes, pH 7.5, 10 mM βMe) was 0.0024 ± 0.0004 µmol/min/mg, the “activity toward PlsCho substrate labeled with [14C]arachidonic acid (in words)” value ([2]; mixed micelles or vesicles) was “did not show any significant activity” and the “PLA2 activity toward phosphatidylcholine substrates (in words)” value ([3]; DPPC substrates) was “no PLA2 activity was found”. The Activity ([3]; DPPC/POPS sonicated vesicles (67 μM:33 μM), pH 7.5, 5 mM EDTA or Ca2+, 1 mg/ml BSA) was under 0.0001 µmol/min/mg, the Activity ([3]; DPPC/TX-100 mixed micelles (100 μM:400 μM), pH 7.5, 2 mM DTT, 5 mM EDTA) was under 0.0001 µmol/min/mg and the “PLA2 activity toward phosphatidylcholine substrates (in words)” value ([4]; PAPC substrates) was “no PLA2 activity was found”. It also gave an Activity ([4]; PAPC/PIP2/TX-100 mixed micelles (97 μM:3 μM:400 μM)) of under 0.0001 µmol/min/mg and an Activity ([4]; PAPC/TX-100 mixed micelles (100 μM:400 μM)) of under 0.0001 µmol/min/mg.
